In one test the target is rat albumin (rat, UniProt P02770 25-608). The test is described as follows: phage ELISA. The protocol:
(§1) Phage ELISA—Phage clones (˜10¹¹ phage) were added to plates coated with rat, rabbit or human albumin. The microtiter plate was washed with wash buffer and bound phage were detected with HRP/Anti-M13 Conjugate. The amount of HRP bound was measured using ABTS/H₂O₂ substrate and monitoring the change at 405 nm.
(An ELISA detects its analyte on a solid surface through an enzyme-linked reagent.)

The next test deals with rabbit albumin (rabbit, UniProt P49065 25-608). The test can be described thus: phage ELISA. Here is the method: as §1
rabbit albumin, sequence (P49065 25-608 limits assumed): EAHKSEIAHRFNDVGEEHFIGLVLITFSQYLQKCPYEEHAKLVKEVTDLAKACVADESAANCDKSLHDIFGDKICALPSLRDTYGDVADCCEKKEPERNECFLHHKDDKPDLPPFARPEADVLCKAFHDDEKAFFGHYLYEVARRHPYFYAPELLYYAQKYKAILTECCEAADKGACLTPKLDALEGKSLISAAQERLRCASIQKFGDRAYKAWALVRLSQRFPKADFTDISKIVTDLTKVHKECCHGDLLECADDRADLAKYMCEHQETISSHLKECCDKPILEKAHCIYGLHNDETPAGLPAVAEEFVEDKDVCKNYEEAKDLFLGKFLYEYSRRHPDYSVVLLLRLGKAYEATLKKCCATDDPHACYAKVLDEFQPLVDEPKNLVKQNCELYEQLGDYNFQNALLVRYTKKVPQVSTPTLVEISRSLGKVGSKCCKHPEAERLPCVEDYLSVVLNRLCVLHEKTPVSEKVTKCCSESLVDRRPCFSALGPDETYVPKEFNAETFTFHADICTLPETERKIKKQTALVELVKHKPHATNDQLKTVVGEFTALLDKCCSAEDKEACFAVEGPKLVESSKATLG

Where no end group is shown, it is not given here.

rat albumin, sequence (P02770 25-608 limits assumed): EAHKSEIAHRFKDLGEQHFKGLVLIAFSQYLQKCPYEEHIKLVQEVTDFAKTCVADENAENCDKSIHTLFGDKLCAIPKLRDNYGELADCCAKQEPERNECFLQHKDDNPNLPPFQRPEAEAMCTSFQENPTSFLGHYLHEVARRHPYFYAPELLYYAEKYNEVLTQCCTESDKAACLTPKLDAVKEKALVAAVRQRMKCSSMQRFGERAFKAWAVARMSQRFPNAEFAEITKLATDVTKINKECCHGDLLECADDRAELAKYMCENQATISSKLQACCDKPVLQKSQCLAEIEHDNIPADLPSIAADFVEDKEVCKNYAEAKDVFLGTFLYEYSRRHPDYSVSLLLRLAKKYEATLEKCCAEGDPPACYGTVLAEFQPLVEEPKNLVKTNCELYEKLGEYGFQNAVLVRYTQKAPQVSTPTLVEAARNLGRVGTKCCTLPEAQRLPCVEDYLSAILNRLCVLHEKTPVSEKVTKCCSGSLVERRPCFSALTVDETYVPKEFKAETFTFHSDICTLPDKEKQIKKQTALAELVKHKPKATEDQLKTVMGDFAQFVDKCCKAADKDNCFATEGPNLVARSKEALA

B1: HA-H83 (peptide)
peptide: GRSFCMDWPAHKSCTPLML
notes: phage clone, Library HA
As for B1, the binding result with rat albumin and with rabbit albumin was “no binding” each time.

B2: HC-H20 (peptide)
peptide: ELCYFPGICWM
notes: phage clone, Library HC
As for B2, the binding result with rat albumin and with rabbit albumin was “no binding” throughout.

B3: HC-H10 (peptide)
peptide: KTCYFPGICWM
notes: phage clone, Library HC
In the case of B3, the binding result with rat albumin and in the test with rabbit albumin was “no binding” throughout.

B4: HB-H13 (peptide)
peptide: ELCYFPGICWT
For B4, the binding result with rat albumin and in the test with rabbit albumin was “no binding” each time.

B5: HC-H19 (peptide)
peptide: EVCYFPGICWM
notes: phage clone, Library HC
As for B5, the binding result with rat albumin and with rabbit albumin was “no binding” in each case.

B6: HC-H9 (peptide)
peptide: EMCYFPGICWT
notes: phage clone, Library HC
On to B6, for which the binding result in the test with rat albumin and with rabbit albumin was “no binding” each time.

B7: HC-H8 (peptide)
peptide: DVCYFPGICWM
notes: phage clone, Library HC
For the molecule B7, the binding result in the test with rat albumin and in the test with rabbit albumin was “no binding” each time.

B8: HC-H5 (peptide)
peptide: KVCYFPGICWM
modifications: not fully specified (bridges); cysteine pairing not given here
notes: phage clone, Library HC
Regarding B8, the binding result in the test with rat albumin and in the test with rabbit albumin was “no binding” throughout.

B9: HC-H7 (peptide)
peptide: EMCYFPGICWS
notes: phage clone, Library HC
Regarding B9, the binding result in the test with rat albumin and with rabbit albumin was “no binding” each time.

B10: HC-H14 (peptide)
peptide: ALCYFPGICWM
notes: phage clone, Library HC
On to B10, for which the binding result with rat albumin and with rabbit albumin was “no binding” each time.

B11: HC-H3 (peptide)
peptide: DLCYFPGICWM
notes: phage clone, Library HC
For B11, the binding result with rat albumin and with rabbit albumin was “no binding” throughout.

B12: HC-H15 (peptide)
peptide: ELCYFPGICWP
notes: phage clone, Library HC
B12: the binding result in the test with rat albumin and with rabbit albumin was “no binding” each time.

B13: HB-H12 (peptide)
peptide: EICYFPGICWI
Regarding B13, the binding result in the test with rat albumin and with rabbit albumin was “no binding” in each case.

B14: HC-H11 (peptide)
peptide: EVCYFPGICWF
notes: phage clone, Library HC
B14: the binding result in the test with rat albumin and with rabbit albumin was “no binding” in each case.

B15: HC-H16 (peptide)
peptide: EVCYFPGICWE
notes: phage clone, Library HC
In the case of B15, the binding result with rat albumin and with rabbit albumin was “no binding” throughout.

B16: HC-H17 (peptide)
peptide: EICYFPGICWM
notes: phage clone, Library HC
In the case of B16, the binding result with rat albumin and with rabbit albumin was “no binding” each time.

B17: HA-H76 (peptide)
peptide: QTRSFCADWPRHESCKPLRG
notes: phage clone, Library HA
For the molecule B17, the binding result with rat albumin and in the test with rabbit albumin was “no binding” in each case.

B18: HBC-H2 (peptide)
peptide: SREVCYYPGICWNGA
notes: phage clone, Library HBC
Regarding B18, the binding result in the test with rat albumin and in the test with rabbit albumin was “no binding” in each case.

B19: HBC-H19 (peptide)
peptide: VRDMCYFPGICWKSE
notes: phage clone, Library HBC
In the case of B19, the binding result with rat albumin and with rabbit albumin was “no binding” throughout.

B20: HB-H10 (peptide)
peptide: IVEMCYYPGICWISP
For B20, the binding result with rat albumin and with rabbit albumin was “no binding” each time.

B21: HBC-H15 (peptide)
peptide: KTEICYFPGICWMSG
notes: phage clone, Library HBC
B21: the binding result in the test with rat albumin and in the test with rabbit albumin was “no binding” each time.

B22: HB-H7 (peptide)
peptide: SGAICYVPGICWTHA
B22: the binding result with rat albumin and with rabbit albumin was “no binding” throughout.

B23: HBC-H8 (peptide)
peptide: SYAPCYFPGICWMGN
notes: phage clone, Library HBC
In the case of B23, the binding result with rat albumin and with rabbit albumin was “no binding” throughout.

B24: HBC-H4 (peptide)
peptide: GGEICYFPGICRVLP
notes: phage clone, Library HBC
On to B24, for which the binding result in the test with rat albumin and with rabbit albumin was “no binding” each time.

B25: HBC-H13 (peptide)
peptide: QTELCYFPGICWNES
notes: phage clone, Library HBC
Turning to B25, the binding result with rat albumin and with rabbit albumin was “no binding” in each case.

B26: HBC-H17 (peptide)
peptide: HAEICYFPGICWTER
notes: phage clone, Library HBC
Regarding B26, the binding result with rat albumin and with rabbit albumin was “no binding” in each case.

B27: HBC-H14 (peptide)
peptide: TTEMCYFPGICWKTE
notes: phage clone, Library HBC
Turning to B27, the binding result in the test with rat albumin and with rabbit albumin was “no binding” in each case.

B28: HBC-H10 (peptide)
peptide: VQEVCYFPGICWMQE
notes: phage clone, Library HBC
On to B28, for which the binding result with rat albumin and with rabbit albumin was “no binding” throughout.

B29: HA-H73 (peptide)
peptide: GVRTFCQDWPAHNSCKLLRG
notes: phage clone, Library HA
Take B29: the binding result with rat albumin and with rabbit albumin was “no binding” throughout.

B30: HBC-H3 (peptide)
peptide: GTEVCYFPGICWGGG
notes: phage clone, Library HBC
Consider B30, for which the binding result in the test with rat albumin and in the test with rabbit albumin was “no binding” in each case.

B31: HBC-H6 (peptide)
peptide: EHDMCYFPGICWIAD
notes: phage clone, Library HBC
Turning to B31, the binding result in the test with rat albumin and with rabbit albumin was “no binding” throughout.

B32: HBC-H18 (peptide)
peptide: RDTVCYFPGICWMAS
notes: phage clone, Library HBC
Turning to B32, the binding result with rat albumin and with rabbit albumin was “no binding” each time.

B33: HBC-H12 (peptide)
peptide: ASEICYFPGICWMVE
notes: phage clone, Library HBC
On to B33, for which the binding result in the test with rat albumin and with rabbit albumin was “no binding” each time.

B34: HBC-H11 (peptide)
peptide: NDEICYFPGVCWKSG
notes: phage clone, Library HBC
In the case of B34, the binding result in the test with rat albumin and in the test with rabbit albumin was “no binding” each time.

Source of the values: patent US20040253247A1 (Genentech, published 2004).
